Measurements taken from patent US20060240570A1 (AXIS SHIELD ASA, published 2006).
Positions count from the first letter of the chain named. Positions of bridges follow the written chain, without caps; N, C: chain ends. No end group written: not given here.

B1: monoclonal antibody TC2 (antibody, V domains shown)
VH: QVQLKQSGPGLLQPSQSLSITCTVSGFSLTYYGVHWVRQSPVKGLEWLGVIWSGGDTDYDTTFISRLSISKDNSKGQVFFKMTSLQTDDTAIYYCARGRTYGIHFDYWGQGTTLTVSS
VL: DIVMSQSPSSLAVSVGEKVTMSCKSSQSLFNSRTRKNYLAWYQQKPGQSPKVLIYWASTRESGVPDRFTGSGSGTDFTLTISSVQAEDLAIYYCKQFYDLWTFGGGTKLEIKR
notes: Mouse IgG1, ECACC 02110742; also called mAb TC2

Experiments:
[1] = target: T1, human holotranscobalamin (holoTC) (human, UniProt P20062 19-427, cobalamin bound (non-covalent complex)); assay: SPR (Biacore); holoTC against apoTC
T1 construct: Recombinant human holoTC in the SPR work; also called holo-TCII
T1 chain: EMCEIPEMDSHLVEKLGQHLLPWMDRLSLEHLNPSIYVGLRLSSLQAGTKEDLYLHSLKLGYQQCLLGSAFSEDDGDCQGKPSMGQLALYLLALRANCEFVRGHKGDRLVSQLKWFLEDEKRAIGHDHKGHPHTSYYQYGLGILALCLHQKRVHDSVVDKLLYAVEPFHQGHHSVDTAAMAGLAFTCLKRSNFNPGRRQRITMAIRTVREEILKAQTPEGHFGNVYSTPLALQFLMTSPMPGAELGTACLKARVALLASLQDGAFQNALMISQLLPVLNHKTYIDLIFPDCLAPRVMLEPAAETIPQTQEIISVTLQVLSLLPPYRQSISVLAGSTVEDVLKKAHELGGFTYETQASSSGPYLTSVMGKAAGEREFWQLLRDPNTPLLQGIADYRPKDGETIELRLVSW

[2] = target: T2, human TC with the common polymorphism P259R (human, UniProt P20062 19-427); assay: method not detailed
T2 sequence: T1 chain with P241R

monoclonal antibody 3C4 = target: T3, monoclonal antibody 3C4; assay: phage ELISA, 10^9 phagemid, wells coated with mAb 3C4
T3 construct: Mouse IgG1, ECACC 02110741; also called mAb 3C4; 3C4 (3CY)
Description: Microtitre plates were coated with 100 μL, 1 μg/mL mAb 3C4 or unrelated control antibody in PBS over night at 4 C. Remaining binding sites were blocked with 20 mg/mL bovine serum albumin (BSA) in PBS for 1 h. Some wells were only coated with BSA. Monoclonal packaged phagemids were added at a concentration of 10¹⁰ to 10⁸ cfu per well in PBS and incubated for 1 h. Preparations of packaged phagemids were centrifuged to remove aggregates. Wells were washed 6 times with PBS containing 0.1% Tween-20 and 3 times with PBS. For detection of bound phages 100 μL of horse-radish peroxidase (HRP) conjugated […] antibody (e.g. Pharmacia) diluted 1/5000 in PBS was added to each well and incubated for 1 h at ambient temperature. ELISA plates were washed 5 times with PBS containing 0.1%
Tween-20 and 3 times with PBS. The chromogenic substrate o-Phenyldiamine in citric acid, pH 4.0 supplemented with H₂O₂ was added and the color generating reaction was stopped after 2-5 min by addition of […].

T3 sequence (VH, as listed by the source, chain 1 of 2): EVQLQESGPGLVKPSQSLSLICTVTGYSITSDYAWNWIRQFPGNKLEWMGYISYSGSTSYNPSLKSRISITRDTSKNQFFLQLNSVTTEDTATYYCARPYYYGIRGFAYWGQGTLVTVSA
T3 sequence (VL, as listed by the source, chain 2 of 2): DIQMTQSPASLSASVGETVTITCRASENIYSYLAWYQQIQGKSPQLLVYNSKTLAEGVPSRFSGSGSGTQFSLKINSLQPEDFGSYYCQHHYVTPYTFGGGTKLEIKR

Row | Binder | holo/apo Specificity (-fold) [1] [fold] | binding result [2] | ELISA (absorbance units) (monoclonal antibody 3C4)
1 | B1 | 1 | binds | –
2 | CSGLYPWDYFMCS (disulfide 1-12 (inferred); also: displayed on phagemid) [phagemid CS1-29p, displayed peptide CSGLYPWDYFMCS] | – | – | 0.136
